Patent US20120251547A1 (Amgen, published 2012)
Substitutions are numbered along the chain they refer to. Read-outs that look alike come from different tables or passages of the source. Values belong to the binder of their own block, whether it stands above or below them.

How the values were obtained:
huIL-17RA-FLAG-polyHis [1] = biological target: T1, huIL-17RA-FLAG-polyHis (human, UniProt Q96F46 33-320); assay: binning; IL-17RA held by bead mAb Q
T1 construct: also called IL-17RA-FLAG-pHis; wild-type IL-17RA

huIL-17RA-FLAG-polyHis [2] = biological target: T1, huIL-17RA-FLAG-polyHis; assay: binning; IL-17RA held by bead mAb B
huIL-17RA-FLAG-polyHis [3] = biological target: T1, huIL-17RA-FLAG-polyHis; assay: binning; IL-17RA held by bead mAb K
huIL-17RA-FLAG-polyHis [4] = biological target: T1, huIL-17RA-FLAG-polyHis; assay: binning; IL-17RA held by bead mAb C
huIL-17RA-FLAG-polyHis [5] = biological target: T1, huIL-17RA-FLAG-polyHis; assay: binning; IL-17RA held by bead mAb L
huIL-17RA-FLAG-polyHis [6] = biological target: T1, huIL-17RA-FLAG-polyHis; assay: binning; IL-17RA held by bead mAb P
[7] = biological target: T2, human IL-17RA, full-length, on cells (human, UniProt Q96F46 33-866); assay: cell-based or functional assay
huIL-17RA-FLAG-polyHis [8] = biological target: T1, huIL-17RA-FLAG-polyHis; assay: binning; IL-17RA held by bead mAb R
[9] = biological target: human IL-17RA (form used in the low resolution BIAcore not stated) (human, UniProt Q96F46 33-320, limits assumed); assay: low resolution BIAcore, subcloned hybridoma
huIL-17RA-FLAG-polyHis [10] = biological target: T1, huIL-17RA-FLAG-polyHis; assay: binning; IL-17RA held by bead mAb M
huIL-17RA-FLAG-polyHis [11] = biological target: T1, huIL-17RA-FLAG-polyHis; assay: binning; IL-17RA held by bead mAb O
[12] = biological target: T3, cynomolgus IL-17RA, on cells (cynomolgus); assay: FACS competition: non-clonal supernatant inhibiting biotin-huIL-17A (competitor) binding to cyno IL-17RA+ CHO cells
T3 construct: whole, on cells; also called CHO-cynoIL-17RA; cyno IL-17RA+ CHO cells

huIL-17RA-FLAG-polyHis [13] = biological target: T1, huIL-17RA-FLAG-polyHis; assay: binning; IL-17RA held by bead mAb A
huIL-17RA-FLAG-polyHis [14] = biological target: T1, huIL-17RA-FLAG-polyHis; assay: binning; IL-17RA held by bead mAb J
huIL-17RA-FLAG-polyHis [15] = biological target: T1, huIL-17RA-FLAG-polyHis; assay: binning; IL-17RA held by bead mAb H
huIL-17RA-FLAG-polyHis [16] = biological target: T1, huIL-17RA-FLAG-polyHis; assay: binning; IL-17RA held by bead mAb G
[17] = biological target: T2, human IL-17RA, full-length, on cells; assay: cell-based or functional assay; remark: listed apart in the source
huIL-17RA-FLAG-polyHis [18] = biological target: T1, huIL-17RA-FLAG-polyHis; assay: binning; IL-17RA held by bead mAb D
huIL-17RA-FLAG-polyHis [19] = biological target: T1, huIL-17RA-FLAG-polyHis; assay: binning; IL-17RA held by bead mAb F
huIL-17RA-FLAG-polyHis [20] = biological target: T1, huIL-17RA-FLAG-polyHis; assay: binning; IL-17RA held by bead mAb N
huIL-17RA-FLAG-polyHis [21] = biological target: T1, huIL-17RA-FLAG-polyHis; assay: binning; IL-17RA held by bead mAb E
huIL-17RA-FLAG-polyHis [22] = biological target: T1, huIL-17RA-FLAG-polyHis; assay: binning; IL-17RA held by bead mAb I
[23] = biological target: T3, cynomolgus IL-17RA, on cells; assay: FACS competition: non-clonal supernatant inhibiting biotin-huIL-17A (competitor) binding to cyno IL-17RA+ CHO cells; remark: listed apart in the source
[24] = biological target: T2, human IL-17RA, full-length, on cells; assay: cell-based or functional assay; remark: listed apart in the source

normalized MFI (huIL-17RA-FLAG-polyHis [1]): 60 | normalized MFI (huIL-17RA-FLAG-polyHis [2]): 455 | normalized MFI (huIL-17RA-FLAG-polyHis [3]): -5 | normalized MFI (huIL-17RA-FLAG-polyHis [4]): 3040 | normalized MFI (huIL-17RA-FLAG-polyHis [5]): 18 | normalized MFI (huIL-17RA-FLAG-polyHis [6]): 1900 | IL-17A/HFF bioassay IC50, subclone 17 [7]: 3.5 nM | IL-17A/HFF bioassay IC50, subclone 18 [7]: 3.7 nM | IL-17A/HFF bioassay IC50, subclone 20 [7]: 5.5 nM | normalized MFI (huIL-17RA-FLAG-polyHis [8]): 40 | Kd [9]: 8.2 nM | normalized MFI (huIL-17RA-FLAG-polyHis [10]): 20 | normalized MFI (huIL-17RA-FLAG-polyHis [11]): 49 | MFI [12]: 6 | normalized MFI (huIL-17RA-FLAG-polyHis [13]): 1940 | normalized MFI (huIL-17RA-FLAG-polyHis [14]): 31 | normalized MFI (huIL-17RA-FLAG-polyHis [15]): 73 | normalized MFI (huIL-17RA-FLAG-polyHis [16]): 3280 | % inhibition of IL-6 Production, IL-17A/HFF bioassay, non-clonal supernatant 1:4 [17]: 75% | % inhibition of IL-6 Production, IL-17A/HFF bioassay, non-clonal supernatant 1:32 [17]: 82% | % inhibition of IL-6 Production, IL-17A/HFF bioassay, non-clonal supernatant 1:128 [17]: 61% | normalized MFI (huIL-17RA-FLAG-polyHis [18]): 888 | normalized MFI (huIL-17RA-FLAG-polyHis [19]): 1410 | normalized MFI (huIL-17RA-FLAG-polyHis [20]): 11 | normalized MFI (huIL-17RA-FLAG-polyHis [21]): 765 | normalized MFI (huIL-17RA-FLAG-polyHis [22]): 26
B1: AMH12/AML12 (antibody, IgG2, V domains shown)
VH: QVQLVQSGAEVKKPGASVKVSCKASGYTLTSYGISWVRQAPGQGLEWMGWISTYKGNTNYAQKLQGRVTMTTDTSTSTAYMELRSLRSDDTAVYYCARKQLVFDYWGQGTLVTVSS
VL: EIVMTQSPATLSVSPGERATLSCRASQSISSSLAWYQQKPGQAPRLLIYGASTRATGIPARFSGSGSGTEFTLTISSLQSENFAVYYCQQYDNWPLTFGGGTKVEIK
notes: human mAb from IgG2 XenoMouse mice; also called AM-12; antibody M

MFI [23]: 18
B2: AMH22/AML22 (antibody, IgG2, V domains shown)
VH: B1 VH with L29F, S31R, T53A, K55S, K99R, V102Y
VL: B1 VL with A19V, I29V, S32N, Y36F, L46P, G50D, T56A, E70D, N82D
notes: human mAb from IgG2 XenoMouse mice; also called AM-22; antibody I

normalized MFI (huIL-17RA-FLAG-polyHis [1]): 98 | normalized MFI (huIL-17RA-FLAG-polyHis [2]): 597 | normalized MFI (huIL-17RA-FLAG-polyHis [3]): -44 | normalized MFI (huIL-17RA-FLAG-polyHis [4]): 3980 | normalized MFI (huIL-17RA-FLAG-polyHis [5]): -1 | normalized MFI (huIL-17RA-FLAG-polyHis [6]): 2470 | IL-17A/HFF bioassay IC50, subclone 21 [7]: 2.5 nM | IL-17A/HFF bioassay IC50, subclone 22 [7]: 5.3 nM | IL-17A/HFF bioassay IC50, subclone 23 [7]: 0.57 nM | normalized MFI (huIL-17RA-FLAG-polyHis [8]): 76 | Kd [9]: 8.2 nM | normalized MFI (huIL-17RA-FLAG-polyHis [10]): 40 | normalized MFI (huIL-17RA-FLAG-polyHis [11]): 55 | MFI [12]: 8 | normalized MFI (huIL-17RA-FLAG-polyHis [13]): 2470 | normalized MFI (huIL-17RA-FLAG-polyHis [14]): 8 | normalized MFI (huIL-17RA-FLAG-polyHis [15]): 68 | normalized MFI (huIL-17RA-FLAG-polyHis [16]): 4260 | % inhibition of IL-6 Production, IL-17A/HFF bioassay, non-clonal supernatant 1:4 [17]: 90% | % inhibition of IL-6 Production, IL-17A/HFF bioassay, non-clonal supernatant 1:32 [17]: 81% | % inhibition of IL-6 Production, IL-17A/HFF bioassay, non-clonal supernatant 1:128 [17]: 73% | normalized MFI (huIL-17RA-FLAG-polyHis [18]): 1200 | normalized MFI (huIL-17RA-FLAG-polyHis [19]): 1920 | normalized MFI (huIL-17RA-FLAG-polyHis [20]): 43 | normalized MFI (huIL-17RA-FLAG-polyHis [21]): 999 | normalized MFI (huIL-17RA-FLAG-polyHis [22]): 18
B3: AMH17/AML17 (antibody, V domains shown)
VH: B1 VH with S17A, S25T, T53A, K55S, N59K
VL: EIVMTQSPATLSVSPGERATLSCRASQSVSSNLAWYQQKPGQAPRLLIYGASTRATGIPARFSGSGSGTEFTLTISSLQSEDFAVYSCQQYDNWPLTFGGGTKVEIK
notes: human mAb from IgG2 XenoMouse mice; also called AM-17; antibody N

IL-17A/HFF bioassay IC50, subclone 10 [7]: 0.22 nM | IL-17A/HFF bioassay IC50, subclone 11 [7]: 1.1 nM | IL-17A/HFF bioassay IC50, subclone 12 [7]: 0.5 nM | IL-17A/HFF IC50 [24]: 0.2 nM | IL-17A/lung fibroblast IC50 [24]: 0.22 nM | IL-17F/HFF IC50 [24]: 0.087 nM
B4: AMH19/AML19 (antibody, IgG2, V domains shown)
VH: B1 VH with T53A, K55S, N59K, L64F, K99R, V102A, F103L
VL: B1 VL with S32N, G64D, S65N, N82D, Y87F, N93T

normalized MFI (huIL-17RA-FLAG-polyHis [1]): 9650 | normalized MFI (huIL-17RA-FLAG-polyHis [2]): 1200 | normalized MFI (huIL-17RA-FLAG-polyHis [3]): 7210 | normalized MFI (huIL-17RA-FLAG-polyHis [4]): 330 | normalized MFI (huIL-17RA-FLAG-polyHis [5]): 3020 | normalized MFI (huIL-17RA-FLAG-polyHis [6]): 6590 | normalized MFI (huIL-17RA-FLAG-polyHis [8]): 7060 | normalized MFI (huIL-17RA-FLAG-polyHis [10]): 1860 | normalized MFI (huIL-17RA-FLAG-polyHis [11]): 3800 | normalized MFI (huIL-17RA-FLAG-polyHis [13]): -220 | normalized MFI (huIL-17RA-FLAG-polyHis [14]): 2320 | normalized MFI (huIL-17RA-FLAG-polyHis [15]): 8640 | normalized MFI (huIL-17RA-FLAG-polyHis [16]): 454 | normalized MFI (huIL-17RA-FLAG-polyHis [18]): 337 | MFI [23]: 9 | normalized MFI (huIL-17RA-FLAG-polyHis [19]): 345 | normalized MFI (huIL-17RA-FLAG-polyHis [20]): 2650 | normalized MFI (huIL-17RA-FLAG-polyHis [21]): 300 | normalized MFI (huIL-17RA-FLAG-polyHis [22]): 5300
B5: AMH11/AML11 (antibody, IgG2, V domains shown)
VH: QVQLVESGGGVVQPGRSLRLSCATSGITFSSYGMHWVRQAPGKGLEWVAVIWYDGSNKYYADSVKGRFTISRDNSKNTLYLQMNSLRAEDTAVYYCARDTKDYWGQGTLVTVSS
VL: EIVMTQSPATLSVSPGERATLSCRASQSVSSNLAWYQQKPGQAPRLLIYGASTRAAGIPARFSGGGSGTAFTLTISNLQSEDFAVYYCQHYINWPKWTFGQGTKVDIK
notes: human mAb from IgG2 XenoMouse mice; also called AM-11; antibody A

IL-17A/HFF bioassay IC50, subclone 13 [7]: > 10 nM | Kd [9]: 7.6 nM | MFI [12]: 6 | % inhibition of IL-6 Production, IL-17A/HFF bioassay, non-clonal supernatant 1:4 [17]: 73% | % inhibition of IL-6 Production, IL-17A/HFF bioassay, non-clonal supernatant 1:32 [17]: 78% | % inhibition of IL-6 Production, IL-17A/HFF bioassay, non-clonal supernatant 1:128 [17]: 75%
B6: AMH13/AML13 (antibody, IgG2, V domains shown)
VH: QVQLVESGGGVVQPGRSLRLSCAASGFTFSSYGMQWVRQAPGKGLEWVAVIWYDGNKKYYADSVKGRFTISRDNSKNTLYLQMNSLRAEDTAVYYCARGRVRDYYYGMDVWGQGTTVTVSS
VL: DIVMTQTPLSLSVTPGQPASIACKSSQSLLHSDGKTYLYWYLQKPGQPPQLLIYEVSTRFSGVPDRFSGSGSGTDFTLKISRVEAEDVGVFYCMQSIQLPLTFGGGTKVEIK
notes: human mAb from IgG2 XenoMouse mice; also called AM-13

MFI [23]: 9
B7: AMH5/AML5 (antibody, IgG2, V domains shown)
VH: QVQLQESGPGLVKPSETLPLTCTVSGGSIRSYYWSWIRQPAGKGLEWIGRIYRSGNTIYNPSLKSRVTMSIDTSKNQFSLTLSSVTAADTAVYYCARENYSESSGLYYYYGMDVWGQGTTVTVSS
VL: DIQMTQSPSSLSASVGDRVTITCRASQGIRNDLGWYQQKPGKAPKRLIYAASSFQSGVPSRFSGSGSGTGFTLTISSLQPEDFATYYCLQHNSYPPTFGQGTKVEIK
notes: human mAb from IgG2 XenoMouse mice; tested only as part of a non-clonal hybridoma supernatant; also called AM-5

MFI [23]: 11
B8: AMH1/AML1 (antibody, IgG2, V domains shown)
VH: QVQLQESGPGLVKPSETLSLTCTVSGGSISNYYWNWIRQSPGKGLEWIGDIYYSGSTNYNPSLKSRVTISVDTSKNQFSLKLSSVTTADTAVYYCARDGELANYYGSGSYQFYYYYGMDVWGQGTTVTVSS
VL: B7 VL with Q3L, F54L, G70E, Y94N, P96F, Q100P, E105D
notes: human mAb from IgG2 XenoMouse mice; also called AM-1; antibody H
